In patent US20260001928A1 (CORTERIA PHARMACEUTICALS, priority 2022, published 2026):
*1 amine or outer side, *2 acyl side, *3 side chain or, on linkers, in order; H or OH if unused. Side-chain parts run from the residue outwards. [ ]: non-standard residue; d: D form. The star is where a group is joined. C16 diacid = O=C(O)CCCCCCCCCCCCCCC(=O)*; γGlu = O=C(O)[C@H](CCC(=O)[*:2])N[*:1]; C14 diacid = O=C(O)CCCCCCCCCCCCC(=O)*; C12 diacid = O=C(O)CCCCCCCCCCC(=O)*; Api = NC1(C(=O)O)CCNCC1; Pentanoyl = CCCCC(=O)*; AEEA = NCCOCCOCC(=O)O; Aib = CC(C)(N)C(=O)O; Propionyl = CCC(=O)*

T1: CRF1R receptor (UniProt P34998 24-415, limits assumed)
T1 sequence (looked up): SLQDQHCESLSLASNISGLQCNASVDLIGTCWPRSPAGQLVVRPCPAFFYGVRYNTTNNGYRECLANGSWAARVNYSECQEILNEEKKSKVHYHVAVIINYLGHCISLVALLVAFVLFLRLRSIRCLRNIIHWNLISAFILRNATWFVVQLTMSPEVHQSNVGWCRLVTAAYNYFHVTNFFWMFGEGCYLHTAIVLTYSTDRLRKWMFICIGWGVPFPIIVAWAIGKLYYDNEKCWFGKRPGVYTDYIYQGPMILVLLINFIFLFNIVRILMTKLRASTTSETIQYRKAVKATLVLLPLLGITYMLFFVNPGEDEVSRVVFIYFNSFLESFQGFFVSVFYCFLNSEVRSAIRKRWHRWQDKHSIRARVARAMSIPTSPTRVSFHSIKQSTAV

B1: SEQ ID NO 184 (peptide)
peptide: Ac-IVLSLD[dV]PIKLK([γGlu-C12 diacid])KILLEQEKQK[Aib]QREQAETN[Api]QILAQV-NH2
SMILES: CC[C@H](C)[C@H](NC(C)=O)C(=O)N[C@H](C(=O)N[C@@H](CC(C)C)C(=O)N[C@@H](CO)C(=O)N[C@@H](CC(C)C)C(=O)N[C@@H](CC(=O)O)C(=O)N[C@@H](C(=O)N1CCC[C@H]1C(=O)N[C@H](C(=O)N[C@@H](CCCCN)C(=O)N[C@@H](CC(C)C)C(=O)N[C@@H](CCCCNC(=O)CC[C@H](NC(=O)CCCCCCCCCCC(=O)O)C(=O)O)C(=O)N[C@@H](CCCCN)C(=O)N[C@H](C(=O)N[C@@H](CC(C)C)C(=O)N[C@@H](CC(C)C)C(=O)N[C@@H](CCC(=O)O)C(=O)N[C@@H](CCC(N)=O)C(=O)N[C@@H](CCC(=O)O)C(=O)N[C@@H](CCCCN)C(=O)N[C@@H](CCC(N)=O)C(=O)N[C@@H](CCCCN)C(=O)NC(C)(C)C(=O)N[C@@H](CCC(N)=O)C(=O)N[C@@H](CCCNC(=N)N)C(=O)N[C@@H](CCC(=O)O)C(=O)N[C@@H](CCC(N)=O)C(=O)N[C@@H](C)C(=O)N[C@@H](CCC(=O)O)C(=O)N[C@H](C(=O)N[C@@H](CC(N)=O)C(=O)NC1(C(=O)N[C@@H](CCC(N)=O)C(=O)N[C@H](C(=O)N[C@@H](CC(C)C)C(=O)N[C@@H](C)C(=O)N[C@@H](CCC(N)=O)C(=O)N[C@H](C(N)=O)C(C)C)[C@@H](C)CC)CCNCC1)[C@@H](C)O)[C@@H](C)CC)[C@@H](C)CC)C(C)C)C(C)C
B2: SEQ ID NO 182 (peptide)
peptide: Ac-IVLSLD[dV]PIKLK([γGlu-C12 diacid])KILLEQEKQKKQREQAETN[Aib]QILAQV-NH2
SMILES: CC[C@H](C)[C@H](NC(C)=O)C(=O)N[C@H](C(=O)N[C@@H](CC(C)C)C(=O)N[C@@H](CO)C(=O)N[C@@H](CC(C)C)C(=O)N[C@@H](CC(=O)O)C(=O)N[C@@H](C(=O)N1CCC[C@H]1C(=O)N[C@H](C(=O)N[C@@H](CCCCN)C(=O)N[C@@H](CC(C)C)C(=O)N[C@@H](CCCCNC(=O)CC[C@H](NC(=O)CCCCCCCCCCC(=O)O)C(=O)O)C(=O)N[C@@H](CCCCN)C(=O)N[C@H](C(=O)N[C@@H](CC(C)C)C(=O)N[C@@H](CC(C)C)C(=O)N[C@@H](CCC(=O)O)C(=O)N[C@@H](CCC(N)=O)C(=O)N[C@@H](CCC(=O)O)C(=O)N[C@@H](CCCCN)C(=O)N[C@@H](CCC(N)=O)C(=O)N[C@@H](CCCCN)C(=O)N[C@@H](CCCCN)C(=O)N[C@@H](CCC(N)=O)C(=O)N[C@@H](CCCNC(=N)N)C(=O)N[C@@H](CCC(=O)O)C(=O)N[C@@H](CCC(N)=O)C(=O)N[C@@H](C)C(=O)N[C@@H](CCC(=O)O)C(=O)N[C@H](C(=O)N[C@@H](CC(N)=O)C(=O)NC(C)(C)C(=O)N[C@@H](CCC(N)=O)C(=O)N[C@H](C(=O)N[C@@H](CC(C)C)C(=O)N[C@@H](C)C(=O)N[C@@H](CCC(N)=O)C(=O)N[C@H](C(N)=O)C(C)C)[C@@H](C)CC)[C@@H](C)O)[C@@H](C)CC)[C@@H](C)CC)C(C)C)C(C)C
B3: SEQ ID NO 183 (peptide)
peptide: Ac-IVLSLD[dV]PIKLK([γGlu-C12 diacid])KILLEQEKQKKQREQAETN[Api]QILAQV-NH2
SMILES: CC[C@H](C)[C@H](NC(C)=O)C(=O)N[C@H](C(=O)N[C@@H](CC(C)C)C(=O)N[C@@H](CO)C(=O)N[C@@H](CC(C)C)C(=O)N[C@@H](CC(=O)O)C(=O)N[C@@H](C(=O)N1CCC[C@H]1C(=O)N[C@H](C(=O)N[C@@H](CCCCN)C(=O)N[C@@H](CC(C)C)C(=O)N[C@@H](CCCCNC(=O)CC[C@H](NC(=O)CCCCCCCCCCC(=O)O)C(=O)O)C(=O)N[C@@H](CCCCN)C(=O)N[C@H](C(=O)N[C@@H](CC(C)C)C(=O)N[C@@H](CC(C)C)C(=O)N[C@@H](CCC(=O)O)C(=O)N[C@@H](CCC(N)=O)C(=O)N[C@@H](CCC(=O)O)C(=O)N[C@@H](CCCCN)C(=O)N[C@@H](CCC(N)=O)C(=O)N[C@@H](CCCCN)C(=O)N[C@@H](CCCCN)C(=O)N[C@@H](CCC(N)=O)C(=O)N[C@@H](CCCNC(=N)N)C(=O)N[C@@H](CCC(=O)O)C(=O)N[C@@H](CCC(N)=O)C(=O)N[C@@H](C)C(=O)N[C@@H](CCC(=O)O)C(=O)N[C@H](C(=O)N[C@@H](CC(N)=O)C(=O)NC1(C(=O)N[C@@H](CCC(N)=O)C(=O)N[C@H](C(=O)N[C@@H](CC(C)C)C(=O)N[C@@H](C)C(=O)N[C@@H](CCC(N)=O)C(=O)N[C@H](C(N)=O)C(C)C)[C@@H](C)CC)CCNCC1)[C@@H](C)O)[C@@H](C)CC)[C@@H](C)CC)C(C)C)C(C)C
B4: SEQ ID NO 185 (peptide)
peptide: Pentanoyl-VLSLD[dV]PIKLK([γGlu-C12 diacid])KILLEQEKQKKQREQAETN[Aib]QILAQV-NH2
SMILES: CCCCC(=O)N[C@H](C(=O)N[C@@H](CC(C)C)C(=O)N[C@@H](CO)C(=O)N[C@@H](CC(C)C)C(=O)N[C@@H](CC(=O)O)C(=O)N[C@@H](C(=O)N1CCC[C@H]1C(=O)N[C@H](C(=O)N[C@@H](CCCCN)C(=O)N[C@@H](CC(C)C)C(=O)N[C@@H](CCCCNC(=O)CC[C@H](NC(=O)CCCCCCCCCCC(=O)O)C(=O)O)C(=O)N[C@@H](CCCCN)C(=O)N[C@H](C(=O)N[C@@H](CC(C)C)C(=O)N[C@@H](CC(C)C)C(=O)N[C@@H](CCC(=O)O)C(=O)N[C@@H](CCC(N)=O)C(=O)N[C@@H](CCC(=O)O)C(=O)N[C@@H](CCCCN)C(=O)N[C@@H](CCC(N)=O)C(=O)N[C@@H](CCCCN)C(=O)N[C@@H](CCCCN)C(=O)N[C@@H](CCC(N)=O)C(=O)N[C@@H](CCCNC(=N)N)C(=O)N[C@@H](CCC(=O)O)C(=O)N[C@@H](CCC(N)=O)C(=O)N[C@@H](C)C(=O)N[C@@H](CCC(=O)O)C(=O)N[C@H](C(=O)N[C@@H](CC(N)=O)C(=O)NC(C)(C)C(=O)N[C@@H](CCC(N)=O)C(=O)N[C@H](C(=O)N[C@@H](CC(C)C)C(=O)N[C@@H](C)C(=O)N[C@@H](CCC(N)=O)C(=O)N[C@H](C(N)=O)C(C)C)[C@@H](C)CC)[C@@H](C)O)[C@@H](C)CC)[C@@H](C)CC)C(C)C)C(C)C
B5: SEQ ID NO 181 (peptide)
peptide: Pentanoyl-VLSLD[dV]PIKLK([AEEA-AEEA-γGlu-γGlu-C14 diacid])KILLEQEKQKKQREQAETN[Aib]QILAQV-NH2
SMILES: CCCCC(=O)N[C@H](C(=O)N[C@@H](CC(C)C)C(=O)N[C@@H](CO)C(=O)N[C@@H](CC(C)C)C(=O)N[C@@H](CC(=O)O)C(=O)N[C@@H](C(=O)N1CCC[C@H]1C(=O)N[C@H](C(=O)N[C@@H](CCCCN)C(=O)N[C@@H](CC(C)C)C(=O)N[C@@H](CCCCNC(=O)COCCOCCNC(=O)COCCOCCNC(=O)CC[C@H](NC(=O)CC[C@H](NC(=O)CCCCCCCCCCCCC(=O)O)C(=O)O)C(=O)O)C(=O)N[C@@H](CCCCN)C(=O)N[C@H](C(=O)N[C@@H](CC(C)C)C(=O)N[C@@H](CC(C)C)C(=O)N[C@@H](CCC(=O)O)C(=O)N[C@@H](CCC(N)=O)C(=O)N[C@@H](CCC(=O)O)C(=O)N[C@@H](CCCCN)C(=O)N[C@@H](CCC(N)=O)C(=O)N[C@@H](CCCCN)C(=O)N[C@@H](CCCCN)C(=O)N[C@@H](CCC(N)=O)C(=O)N[C@@H](CCCNC(=N)N)C(=O)N[C@@H](CCC(=O)O)C(=O)N[C@@H](CCC(N)=O)C(=O)N[C@@H](C)C(=O)N[C@@H](CCC(=O)O)C(=O)N[C@H](C(=O)N[C@@H](CC(N)=O)C(=O)NC(C)(C)C(=O)N[C@@H](CCC(N)=O)C(=O)N[C@H](C(=O)N[C@@H](CC(C)C)C(=O)N[C@@H](C)C(=O)N[C@@H](CCC(N)=O)C(=O)N[C@H](C(N)=O)C(C)C)[C@@H](C)CC)[C@@H](C)O)[C@@H](C)CC)[C@@H](C)CC)C(C)C)C(C)C
B6: SEQ ID NO 6 (peptide)
peptide: Propionyl-VLSLD[dV]PIKLK([γGlu-C16 diacid])QILLKQERQKKQREQAEKNKQILEQV-NH2
SMILES: CCC(=O)N[C@H](C(=O)N[C@@H](CC(C)C)C(=O)N[C@@H](CO)C(=O)N[C@@H](CC(C)C)C(=O)N[C@@H](CC(=O)O)C(=O)N[C@@H](C(=O)N1CCC[C@H]1C(=O)N[C@H](C(=O)N[C@@H](CCCCN)C(=O)N[C@@H](CC(C)C)C(=O)N[C@@H](CCCCNC(=O)CC[C@H](NC(=O)CCCCCCCCCCCCCCC(=O)O)C(=O)O)C(=O)N[C@@H](CCC(N)=O)C(=O)N[C@H](C(=O)N[C@@H](CC(C)C)C(=O)N[C@@H](CC(C)C)C(=O)N[C@@H](CCCCN)C(=O)N[C@@H](CCC(N)=O)C(=O)N[C@@H](CCC(=O)O)C(=O)N[C@@H](CCCNC(=N)N)C(=O)N[C@@H](CCC(N)=O)C(=O)N[C@@H](CCCCN)C(=O)N[C@@H](CCCCN)C(=O)N[C@@H](CCC(N)=O)C(=O)N[C@@H](CCCNC(=N)N)C(=O)N[C@@H](CCC(=O)O)C(=O)N[C@@H](CCC(N)=O)C(=O)N[C@@H](C)C(=O)N[C@@H](CCC(=O)O)C(=O)N[C@@H](CCCCN)C(=O)N[C@@H](CC(N)=O)C(=O)N[C@@H](CCCCN)C(=O)N[C@@H](CCC(N)=O)C(=O)N[C@H](C(=O)N[C@@H](CC(C)C)C(=O)N[C@@H](CCC(=O)O)C(=O)N[C@@H](CCC(N)=O)C(=O)N[C@H](C(N)=O)C(C)C)[C@@H](C)CC)[C@@H](C)CC)[C@@H](C)CC)C(C)C)C(C)C

target: T1, CRF1R receptor; assay: cell-based or functional assay

Emax (% I) | EC50 | Binder
3% | – | B1
1% | – | B2
11% | – | B3
2% | – | B4
9% | – | B5
56% | 166 nM | B6

target: human corticotropin-releasing factor 2a (CRF2a receptor) (human), Q13324; assay: cell-based or functional assay
Sequence (Q13324 20-411): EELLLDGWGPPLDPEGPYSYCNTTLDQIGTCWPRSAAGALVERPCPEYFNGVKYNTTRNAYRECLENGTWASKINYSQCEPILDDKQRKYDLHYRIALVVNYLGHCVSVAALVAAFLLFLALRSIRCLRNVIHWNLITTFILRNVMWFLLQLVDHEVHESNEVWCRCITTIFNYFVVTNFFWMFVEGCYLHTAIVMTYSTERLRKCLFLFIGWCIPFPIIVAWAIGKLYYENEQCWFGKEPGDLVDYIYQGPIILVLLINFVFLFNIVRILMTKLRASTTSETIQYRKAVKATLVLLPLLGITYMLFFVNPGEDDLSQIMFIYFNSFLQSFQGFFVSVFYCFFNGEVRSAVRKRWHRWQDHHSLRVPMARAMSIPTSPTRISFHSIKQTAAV

EC50 [nM] (cAMP) | Binder
4.25 nM | B1
1.88 nM | B2
2.47 nM | B3
3.54 nM | B4
24.7 nM | B5
0.09 nM | B6
